The target of assay [1] is (His)6-tagged Pf-Ubc9 (Plasmodium falciparum). In words: pull-down.
The target of assay [2] is Pf-Ubc9 (Plasmodium falciparum E2 conjugating enzyme), untagged (Plasmodium falciparum). In words: ITC.
Assay [3] concerns the target Hs-Ubc9 (human E2 conjugating enzyme Ubc9), untagged (human) (UniProt P63279). In words: ITC.
The target of assay [4] is (His)6-tagged Hs-Ubc9 (human) (UniProt P63279). In words: pull-down.
Assay [5] concerns the target Hs-Ubc9 (human E2 conjugating enzyme Ubc9), untagged (human) (UniProt P63279).
For assay [6], the target named is Pf-SUMO D90A mutant, untagged (ITC, SPR, NMR) (Plasmodium falciparum). In words: SPR.

Consider nine substances from paper doi:10.1101/2021.08.18.456755.

“Hs-SUMO1 as prepared for pull-down and SUMOylation assays (GST-tagged preparation) (from UniProt P63165 1-97) (natural protein)” showed a relative binding affinity (quantified pull-down) in assay [1] of 12%. Turning to “Pf-SUMO (Plasmodium falciparum SUMO, mature form Pf-SUMO-GG), untagged (natural protein)”, the dissociation constant (Kd) in assay [2] was determined as 4.05 µM; in assay [3] it was 27.4 µM. In assay [4], “Pf-SUMO D68A mutant (pull-down preparation) (natural protein)” gave a reduction of binding against Pf-SUMO wild type (quantified pull-down) of 90%. In assay [4], “Pf-SUMO D68K mutant (pull-down preparation) (natural protein)” yielded a reduction of binding against Pf-SUMO wild type (quantified pull-down) of 90%. Substance “Pf-SUMO D90A mutant (pull-down preparation) (natural protein)” gave a reduction of binding against Pf-SUMO wild type (quantified pull-down) in assay [4] of 90%. In turn, “Pf-SUMO D90A mutant, untagged (ITC, SPR, NMR) (natural protein)” returned a fold change of the dissociation constant against the wild type in assay [5] of 4 fold. In assay [2], this substance had a Kd of 2.5 µM. The substance “Pf-SUMO D90K mutant (pull-down preparation) (natural protein)” had a reduction of binding against Pf-SUMO wild type (quantified pull-down) in assay [4] of 90%. With “Pf-SUMO wild type as prepared for pull-down and SUMOylation assays (GST-tagged preparation) (natural protein)”, the relative affinity (quantified pull-down) in assay [4] came to 67%.

On to “Pf-Ubc9 (Plasmodium falciparum E2 conjugating enzyme), untagged”, for which the dissociation constant (Kd) in assay [6] was found to be 3.02 µM.
